Results as given in patent US20220041658A1 (PROTAGONIST THERAPEUTICS, published 2022).
Positions of bridges follow the written chain, without caps; N, C: chain ends. Non-standard residues stand in square brackets, D forms with d. Trp(7-Me) = Cc1cccc2c(C[C@H](N)C(=O)O)c[nH]c12; 2Nal = N[C@@H](Cc1ccc2ccccc2c1)C(=O)O; AEF = NCCOc1ccc(C[C@H](N)C(=O)O)cc1; Cit = NC(=O)NCCC[C@H](N)C(=O)O; αMeL = CC(C)C[C@](C)(N)C(=O)O; Pen = CC(C)(S)[C@H](N)C(=O)O; αMeK = C[C@](N)(CCCCN)C(=O)O; βAla = NCCC(=O)O

B1: Peptide of SEQ ID NO: 360 (peptide)
peptide: XNTXKXXXXXNL
modifications: Ac-[Pen]-N-T-[W(7-Me)]-[Lys(Ac)]-[Pen]-Phe[4-(2-aminoethoxy)]-[2-Nal]-[a-MeLys]-[Lys(trifluoropropionic)]-N-[(D)Leu]-NH2; Pen-Pen disulfide
B2: Peptide of SEQ ID NO: 224 (peptide)
peptide: XNTXQXXXXKXX
modifications: Ac-[Pen]-NT-[W(7-Me)]-Q-[Pen]-Phe[4-(2-aminoethoxy)]-[2-Nal]-[a-MeLeu]-[Lys(Ac)]-[Sarc]-[bA]-NH2; Pen-Pen disulfide
B3: Peptide of SEQ ID NO: 209 (peptide)
peptide: XNTXQXXXXKAX
modifications: Ac-[Pen]-NT-[W(7-Me)]-Q-[Pen]-Phe[4-(2-aminoethoxy)]-[2-Nal]-[a-MeLeu]-[Lys(Ac)]-[(D)Ala]-[bA]-NH2; Pen-Pen disulfide
B4: Peptide of SEQ ID NO: 363 (peptide)
peptide: XNTXKXXXXXNL
modifications: Ac-[Pen]-N-T-[W(7-Me)]-[Lys(Ac)]-[Pen]-Phe[4-(2-aminoethoxy)]-[2-Nal]-[a-MeLys]-[Lys(PEG11-OMe)]-N-[(D)Leu]-NH2; Pen-Pen disulfide
B5: Peptide of SEQ ID NO: 203 (peptide)
peptide: RXQTXQCXXXENX
modifications: Ac-[(D)Arg]-Abu-Q-T-[W(7-Me)]-Q-C-Phe[4-(2-aminoethoxy)]-[2-Nal]-[THP]-E-N-[bA]-NH2; Abu-Cys thioether
B6: Peptide of SEQ ID NO: 258 (peptide)
peptide: XNTXKXXXXKNF
modifications: Ac-[Pen]-NT-[W(7-Me)]-[Lys(Ac)]-[Pen]-Phe[4-(2-aminoethoxy)]-[2-Nal]-[a-MeLys]-[Lys(Ac)]-N-[(D)Phe]-NH2; Pen-Pen disulfide
B7: Peptide of SEQ ID NO: 362 (peptide)
peptide: XNTXKXXXXXNL
modifications: Ac-[Pen]-N-T-[W(7-Me)]-[Lys(Ac)]-[Pen]-Phe[4-(2-aminoethoxy)]-[2-Nal]-[a-MeLys]-[Lys(PEG3-OMe)]-N-[(D)Leu]-NH2; Pen-Pen disulfide
B8: Peptide of SEQ ID NO: 208 (peptide)
peptide: XNTXQXXXXKLX
modifications: Ac-[Pen]-NT-[W(7-Me)]-Q-[Pen]-Phe[4-(2-aminoethoxy)]-[2-Nal]-[a-MeLeu]-[Lys(Ac)]-L-[bA]-NH2; Pen-Pen disulfide
B9: Peptide of SEQ ID NO: 225 (peptide)
peptide: XNTXQXXXXKXX
modifications: Ac-[Pen]-NT-[W(7-Me)]-Q-[Pen]-Phe[4-(2-aminoethoxy)]-[2-Nal]-[a-MeLeu]-[Lys(Ac)]-[a-MeLeu]-[bA]-NH2; Pen-Pen disulfide
B10: Peptide of SEQ ID NO: 217 (peptide)
peptide: XNTXQXXXXKTX
modifications: Ac-[Pen]-NT-[W(7-Me)]-Q-[Pen]-Phe[4-(2-aminoethoxy)]-[2-Nal]-[a-MeLeu]-[Lys(Ac)]-T-[bA]-NH2; Pen-Pen disulfide
B11: Peptide of SEQ ID NO: 206 (peptide)
peptide: XNTXQXXXXKXX
modifications: Ac-[Pen]-NT-[W(7-Me)]-Q-[Pen]-Phe[4-(2-aminoethoxy)]-[2-Nal]-[a-MeLeu]-[Lys(Ac)]-[Cit]-[bA]-NH2; Pen-Pen disulfide
B12: Peptide of SEQ ID NO: 236 (peptide)
peptide: XNTXQXXXXXNX
modifications: Ac-[Pen]-NT-[W(7-Me)]-Q-[Pen]-Phe[4-(2-aminoethoxy)]-[2-Nal]-[a-MeLys]-[Aib]-N-[bA]-NH2; Pen-Pen disulfide
B13: Peptide of SEQ ID NO: 216 (peptide)
peptide: XNTXQXXXXKIX
modifications: Ac-[Pen]-NT-[W(7-Me)]-Q-[Pen]-Phe[4-(2-aminoethoxy)]-[2-Nal]-[a-MeLeu]-[Lys(Ac)]-I-[bA]-NH2; Pen-Pen disulfide
B14: Peptide of SEQ ID NO: 361 (peptide)
peptide: XNTXKXXXXXNL
modifications: Ac-[Pen]-N-T-[W(7-Me)]-[Lys(Ac)]-[Pen]-Phe[4-(2-aminoethoxy)]-[2-Nal]-[a-MeLys]-[Lys(valeric)]-N-[(D)Leu]-NH2; Pen-Pen disulfide
B15: Peptide of SEQ ID NO: 239 (peptide)
peptide: XKTXQXXXXKNX
modifications: Ac-[Pen]-[Lys(Ac)]-T-[W(7-Me)]-Q-[Pen]-Phe[4-(2-aminoethoxy)]-[2-Nal]-[a-MeLys]-[Lys(Ac)]-N-[bA]-NH2; Pen-Pen disulfide

What follows are binders tested against T1, interleukin-23 receptor (IL-23R) (human, UniProt Q5VWK5 24-629) (assay: cell-based or functional assay).
T1 sequence (looked up): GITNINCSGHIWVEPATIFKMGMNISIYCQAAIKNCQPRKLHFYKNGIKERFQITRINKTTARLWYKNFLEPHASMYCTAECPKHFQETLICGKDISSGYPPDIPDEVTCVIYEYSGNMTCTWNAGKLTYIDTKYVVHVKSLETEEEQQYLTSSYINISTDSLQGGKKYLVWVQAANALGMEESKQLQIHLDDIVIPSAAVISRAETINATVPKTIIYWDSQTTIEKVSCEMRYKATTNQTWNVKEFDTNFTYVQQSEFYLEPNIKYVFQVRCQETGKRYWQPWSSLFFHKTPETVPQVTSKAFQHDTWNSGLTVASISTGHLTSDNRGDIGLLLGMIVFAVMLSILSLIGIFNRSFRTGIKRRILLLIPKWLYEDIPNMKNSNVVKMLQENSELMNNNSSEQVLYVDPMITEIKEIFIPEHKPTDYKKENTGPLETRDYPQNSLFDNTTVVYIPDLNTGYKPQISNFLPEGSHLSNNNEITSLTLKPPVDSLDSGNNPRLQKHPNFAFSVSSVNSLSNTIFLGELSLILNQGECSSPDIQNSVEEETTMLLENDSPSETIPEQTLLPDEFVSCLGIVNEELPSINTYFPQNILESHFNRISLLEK

Row | pStat3 HTRF IC50 [nM] | Binder
1 | 0.568 | B1
2 | 124 | B2
3 | 9.84 | B3
4 | 0.702 | Ac-[Pen]NT[Trp(7-Me)][Cit][Pen][AEF][2Nal][αMeL]K(Ac)N[βAla]-NH2 (disulfide 1-6) [Peptide of SEQ ID NO: 227]
5 | 0.446 | B4
6 | 1.84 | B5
7 | 0.92 | B6
8 | 3.21 | Ac-[Pen]NT[Trp(7-Me)][αMeL][Pen][AEF][2Nal][αMeK]K(Ac)N[βAla]-NH2 (disulfide 1-6) [Peptide of SEQ ID NO: 235]
9 | 0.107 | B7
10 | 5.39 | B8
11 | 56.7 | B9
12 | 1.61 | B10
13 | 12 | B11
14 | 5.21 | B12
15 | 13.5 | B13
16 | 0.596 | B14
17 | 1.66 | B15

Biological target: T1, interleukin-23 receptor (IL-23R)
Experiment: cell-based or functional assay
Remark: another data set of the same source

Row | NK Cell Assay IC50 [nM] | Binder
18 | 1.1 | B1
19 | > 500 | B2
20 | 30.1 | B3
21 | 2.95 | Ac-[Pen]NT[Trp(7-Me)][Cit][Pen][AEF][2Nal][αMeL]K(Ac)N[βAla]-NH2 (disulfide 1-6) [Peptide of SEQ ID NO: 227]
22 | 4.36 | B4
23 | 2.3 | B5
24 | 9.7 | B6
25 | 10.2 | Ac-[Pen]NT[Trp(7-Me)][αMeL][Pen][AEF][2Nal][αMeK]K(Ac)N[βAla]-NH2 (disulfide 1-6) [Peptide of SEQ ID NO: 235]
26 | 3.81 | B7
27 | 7.8 | B8
28 | 114 | B9
29 | 13.3 | B10
30 | 21.4 | B11
31 | 5.82 | B12
32 | > 500 | B13
33 | 1.47 | B14
34 | 4.1 | B15
